Data published in patent US20190048062A1 (BRACCO SUISSE, published 2019).

Legend:
Experiment in all cases: flow chamber, microvesicles on selectin-Fc coating
[1] = biological target: T1, mouse Fc P-Selectin (catalog number 737-PS, R&D Systems) (mouse, UniProt Q01102 42-709)
T1 construct: Bought; coated in the flow chamber at 4 µg/mL; also called Mouse P selectin; mouse P-selectin; Fc part of the bought chimera not given
T1 sequence (looked up): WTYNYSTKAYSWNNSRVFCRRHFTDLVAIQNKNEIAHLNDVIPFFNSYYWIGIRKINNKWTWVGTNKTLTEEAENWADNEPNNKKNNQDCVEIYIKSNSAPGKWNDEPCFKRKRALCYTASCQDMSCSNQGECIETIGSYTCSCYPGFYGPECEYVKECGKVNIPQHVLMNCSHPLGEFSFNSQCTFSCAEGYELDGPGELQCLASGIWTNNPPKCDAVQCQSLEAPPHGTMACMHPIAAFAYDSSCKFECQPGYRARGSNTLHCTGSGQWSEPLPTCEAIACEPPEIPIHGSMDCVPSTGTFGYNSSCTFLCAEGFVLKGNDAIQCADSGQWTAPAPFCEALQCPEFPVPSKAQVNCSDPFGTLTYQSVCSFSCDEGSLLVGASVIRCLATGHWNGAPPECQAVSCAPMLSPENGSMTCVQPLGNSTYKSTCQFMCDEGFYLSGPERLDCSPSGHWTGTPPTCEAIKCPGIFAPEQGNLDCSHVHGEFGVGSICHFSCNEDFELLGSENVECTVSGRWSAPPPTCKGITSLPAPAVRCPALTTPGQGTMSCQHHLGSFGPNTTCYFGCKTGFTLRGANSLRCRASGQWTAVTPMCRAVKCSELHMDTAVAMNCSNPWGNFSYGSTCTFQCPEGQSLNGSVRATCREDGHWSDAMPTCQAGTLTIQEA
Protocol: (§1) To test the effective binding, targeted microvesicles prepared as described in WO2012/020030 (Example 6) and those prepared according to the present invention (example 8) were injected in a flow chamber set up comprising a coating of mouse Fc P-Selectin (catalog number 737-PS, R&D Systems, Minneapolis, Minn., USA) or human Fc P and E selectins (R&D catalog numbers 137-PS 50 and 724 ES 100) at 4 μg/mL. Microvesicles (at equivalent number of 80×10⁶/400 μL TBS++) were injected through the flow chamber (FCS2, Bioptech, USA) in a bolus fashion and their adhesion onto the mouse P-selectin (or human P- or E-selectin) coating layer assessed over a period of 10 min at a flow rate of 1.0 mL/min (shear rate of 714 s⁻¹) in the presence of 50% (v:v) human plasma (Stehelin & Cie A G) in TBS. A quantitative analysis of microvesicles accumulation was performed by counting the number of microvesicles adhering in the observed area at 2 min intervals over the total 10 min infusion, using the image processing program Analysis FIVE (SIS, Germany). After 10 min, five pictures were taken randomly and the number of bound microvesicles was measured and expressed as the number of bound bubbles (NBB) at 10 min. Each observed area was 183×137 μm, as measured with the aid of a stage micrometer. Measurement was performed between the middle and the exit of the chamber.
(§2) Similarly, suspensions of targeted microvesicles prepared according to example 8 (Variant 1A as targeting ligand) was injected in a flow chamber as described above, and their binding activity determined according to the above procedure.

[2] = biological target: T2, human Fc P selectin (R&D catalog number 137-PS 50) (human, UniProt P16109 42-771)
T2 construct: Bought; coated in the flow chamber at 4 µg/mL; also called Human P selectin; human P-selectin; Fc part of the bought chimera not given
T2 sequence (looked up): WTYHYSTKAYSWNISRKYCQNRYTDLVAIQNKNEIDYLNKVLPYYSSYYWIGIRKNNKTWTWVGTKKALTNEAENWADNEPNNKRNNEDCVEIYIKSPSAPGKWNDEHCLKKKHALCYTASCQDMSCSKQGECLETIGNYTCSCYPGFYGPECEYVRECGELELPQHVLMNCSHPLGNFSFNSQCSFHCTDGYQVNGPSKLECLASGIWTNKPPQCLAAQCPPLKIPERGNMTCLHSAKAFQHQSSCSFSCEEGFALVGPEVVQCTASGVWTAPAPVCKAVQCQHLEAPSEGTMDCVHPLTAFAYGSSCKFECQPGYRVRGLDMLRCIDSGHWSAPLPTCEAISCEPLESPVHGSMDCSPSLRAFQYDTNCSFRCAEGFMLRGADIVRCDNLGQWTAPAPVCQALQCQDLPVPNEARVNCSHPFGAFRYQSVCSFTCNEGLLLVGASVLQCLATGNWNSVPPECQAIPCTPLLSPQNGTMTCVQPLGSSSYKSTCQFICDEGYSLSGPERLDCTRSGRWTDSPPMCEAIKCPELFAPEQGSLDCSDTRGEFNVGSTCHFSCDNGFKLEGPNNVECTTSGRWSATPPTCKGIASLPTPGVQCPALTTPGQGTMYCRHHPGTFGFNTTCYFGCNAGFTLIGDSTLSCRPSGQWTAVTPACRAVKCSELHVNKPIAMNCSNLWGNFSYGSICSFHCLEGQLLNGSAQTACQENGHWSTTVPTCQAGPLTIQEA
Protocol: as §1, §2

[3] = biological target: T3, human Fc E selectin (R&D catalog number 724 ES 100) (human, UniProt P16581 22-556)
T3 construct: Bought; coated in the flow chamber at 4 µg/mL; also called Human E selectin; human E-selectin; Fc part of the bought chimera not given
T3 sequence (looked up): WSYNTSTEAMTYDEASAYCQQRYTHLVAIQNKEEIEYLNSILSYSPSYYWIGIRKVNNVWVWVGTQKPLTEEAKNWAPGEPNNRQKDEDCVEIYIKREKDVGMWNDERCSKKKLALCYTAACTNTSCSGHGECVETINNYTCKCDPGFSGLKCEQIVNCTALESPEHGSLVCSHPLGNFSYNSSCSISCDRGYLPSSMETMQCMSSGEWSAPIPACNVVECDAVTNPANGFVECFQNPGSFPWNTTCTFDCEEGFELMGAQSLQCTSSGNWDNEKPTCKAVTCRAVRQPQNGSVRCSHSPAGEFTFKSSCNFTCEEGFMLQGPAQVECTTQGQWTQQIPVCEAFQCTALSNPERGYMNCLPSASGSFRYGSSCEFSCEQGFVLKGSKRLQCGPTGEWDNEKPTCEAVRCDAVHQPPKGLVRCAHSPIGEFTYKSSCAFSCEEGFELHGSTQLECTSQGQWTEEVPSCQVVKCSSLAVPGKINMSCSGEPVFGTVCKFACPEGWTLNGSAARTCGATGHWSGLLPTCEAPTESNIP
Protocol: as §1, §2

binding result [1]: binds | binding result [2]: binds | binding result [3]: binds
B1: microbubble Variant 1A (gas-filled microvesicles carrying the DSPE-PEG-SH/Variant 1A-SMCC conjugate) (other)
chain: QATEYEYLDYDFLPETEPPEMLRNSTDTTPLTGPGTPESTTVEPAARPHTCPPCPLQQRRGLEAERARLAAQLDALRAEVARLARERDLYGGGGAGGGGKG
modifications: as Variant 1A (pyroglutamate N-terminus, sulfated Tyr 5, 7, 10, O-glycan on Thr16); reacted with Sulfo-SMCC and linked to DSPE-PEG2000-SH, held in the phospholipid envelope of the microvesicle
notes: many copies of the ligand on each microvesicle, so the read-out is multivalent adhesion; also called MB-PSGL-1 Variant 1A; microvesicles with Variant 1A
